Our source for the EC50 values is paper PMC5270629.

As usually defined, the EC50 is the concentration giving half of the maximal effect.

The target in assay [1] is recombinant von Willebrand factor (VWF) A2 domain polypeptide, A2_(1481-1668) (human) (UniProt P04275). The assay is described as follows: ELISA. For orientation: ELISA stands for enzyme-linked immunosorbent assay.
A further assay deals with fibrin monomer (UniProt P02675). The assay is described as follows: ELISA.

recombinant von Willebrand factor (VWF) A2 domain polypeptide, A2_(1481-1668), sequence (P04275 1481-1668): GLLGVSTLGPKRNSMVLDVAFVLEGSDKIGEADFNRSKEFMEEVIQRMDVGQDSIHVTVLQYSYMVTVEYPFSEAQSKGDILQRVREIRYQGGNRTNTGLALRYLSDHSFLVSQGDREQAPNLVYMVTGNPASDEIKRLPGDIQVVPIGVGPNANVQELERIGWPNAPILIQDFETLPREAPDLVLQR
recombinant von Willebrand factor (VWF) A2 domain polypeptide, A2_(1481-1668) (human), sequence (P04275 1481-1668): as above

Turning to “fibrin monomer (from UniProt P02675 45-491; P02679 27-453) (complex)”, the concentration giving a half-maximal response (EC50) in assay [1] came to 7 nM.
Take “recombinant von Willebrand factor (VWF) A2 domain polypeptide, A2_(1481-1668) (from UniProt P04275 1481-1668) (domain or fragment)”: the EC50 with fibrin monomer is 60 nM.
